# Assay results reported in patent publication US5695963.
# How the values were obtained:
# EPAS1 (Homo sapiens) = EPAS1 (Homo sapiens) (UniProt Q99814); assay: cell_activity; conditions: 293 cells, endogenous ARNT
# [1] = tested on: EPAS1/ARNT heterodimer (cotransfected) (Homo sapiens (EPAS1) / Mus musculus? (ARNT)); assay: cell_activity; conditions: ARNT-deficient c4 cells; EPAS1 alone 1.8-fold; Hepa1c1c7 with EPAS1 9-fold
# [2] = target: HIF-1alpha (Homo sapiens) (UniProt Q16665); assay: cell_activity; conditions: 293 cells, larger amounts of plasmid
# [3] = target: mouse aryl hydrocarbon receptor nuclear transport protein (ARNT) (mouse) (UniProt P53762)
# HIF-1alpha (Homo sapiens), sequence (Q16665 whole entry): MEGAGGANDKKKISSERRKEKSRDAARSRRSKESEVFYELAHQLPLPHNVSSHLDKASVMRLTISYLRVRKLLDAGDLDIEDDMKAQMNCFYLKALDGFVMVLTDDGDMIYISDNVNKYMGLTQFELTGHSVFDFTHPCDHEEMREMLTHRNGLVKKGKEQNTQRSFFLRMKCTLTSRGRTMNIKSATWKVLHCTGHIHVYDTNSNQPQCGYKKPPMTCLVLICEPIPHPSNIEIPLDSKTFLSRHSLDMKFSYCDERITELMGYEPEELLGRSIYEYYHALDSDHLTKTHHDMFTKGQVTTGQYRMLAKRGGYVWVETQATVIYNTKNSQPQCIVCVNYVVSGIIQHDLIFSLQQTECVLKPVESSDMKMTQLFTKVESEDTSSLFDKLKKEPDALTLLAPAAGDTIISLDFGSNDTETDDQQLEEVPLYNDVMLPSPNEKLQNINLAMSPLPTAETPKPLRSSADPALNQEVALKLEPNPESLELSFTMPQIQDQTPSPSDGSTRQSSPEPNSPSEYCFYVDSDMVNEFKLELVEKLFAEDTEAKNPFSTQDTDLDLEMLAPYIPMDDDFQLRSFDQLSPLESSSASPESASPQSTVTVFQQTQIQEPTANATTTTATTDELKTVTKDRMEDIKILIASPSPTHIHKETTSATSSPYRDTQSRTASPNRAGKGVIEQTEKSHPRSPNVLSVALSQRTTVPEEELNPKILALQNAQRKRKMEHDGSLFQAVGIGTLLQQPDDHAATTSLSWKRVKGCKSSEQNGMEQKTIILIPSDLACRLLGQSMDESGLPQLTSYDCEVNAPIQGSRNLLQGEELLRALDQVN
# EPAS1 (Homo sapiens), sequence (Q99814 whole entry A60E): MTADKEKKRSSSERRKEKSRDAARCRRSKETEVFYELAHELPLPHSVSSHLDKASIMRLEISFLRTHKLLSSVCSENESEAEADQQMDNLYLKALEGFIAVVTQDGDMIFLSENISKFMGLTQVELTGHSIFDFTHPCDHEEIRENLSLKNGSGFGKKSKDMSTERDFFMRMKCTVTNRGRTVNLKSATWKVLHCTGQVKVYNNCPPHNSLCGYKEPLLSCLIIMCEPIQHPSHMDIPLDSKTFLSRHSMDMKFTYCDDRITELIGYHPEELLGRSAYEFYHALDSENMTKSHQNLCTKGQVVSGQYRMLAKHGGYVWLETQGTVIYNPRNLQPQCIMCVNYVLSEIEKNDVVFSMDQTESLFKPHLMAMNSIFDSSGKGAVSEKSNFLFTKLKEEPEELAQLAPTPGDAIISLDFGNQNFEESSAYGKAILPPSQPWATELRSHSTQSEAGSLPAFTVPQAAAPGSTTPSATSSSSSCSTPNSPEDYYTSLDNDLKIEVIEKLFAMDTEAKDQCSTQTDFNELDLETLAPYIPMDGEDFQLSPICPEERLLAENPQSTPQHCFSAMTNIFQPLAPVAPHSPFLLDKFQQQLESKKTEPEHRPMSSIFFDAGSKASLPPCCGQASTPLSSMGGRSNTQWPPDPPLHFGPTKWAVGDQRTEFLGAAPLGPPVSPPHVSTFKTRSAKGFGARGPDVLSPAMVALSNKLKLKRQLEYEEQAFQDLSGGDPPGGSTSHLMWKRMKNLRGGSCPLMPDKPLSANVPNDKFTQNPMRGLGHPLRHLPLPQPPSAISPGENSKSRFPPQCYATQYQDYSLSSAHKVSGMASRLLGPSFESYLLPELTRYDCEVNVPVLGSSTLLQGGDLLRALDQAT
Substance,activity (fold induction) (EPAS1 (Homo sapiens)),activity (fold induction) [1],activity (fold induction) [2],luciferase activity of the pRE-Elb-LUC reporter in ARNT-deficient c4 hepatoma cells [3]
three copies of 50-nt EPO hypoxia-inducible enhancer in luciferase reporter,12,12,7,
human EPAS1 protein,,,,12 fold
